What was measured:
[1] = molecular target: CFP-tagged human αA-crystallin wild-type (human) (UniProt P02489); experiment: FRET or BRET; acceptor photobleaching in living HeLa cells co-transfected for 48 h; CFP fusion as donor, YFP fusion as acceptor bleached at 514 nm; FRET efficiency from ten images per construct, three experiments; room temperature
[2] = molecular target: CFP-tagged human αB-crystallin wild-type (human) (UniProt P02511); experiment: as above
Sequence of UniProt P02511 (P02511 whole entry): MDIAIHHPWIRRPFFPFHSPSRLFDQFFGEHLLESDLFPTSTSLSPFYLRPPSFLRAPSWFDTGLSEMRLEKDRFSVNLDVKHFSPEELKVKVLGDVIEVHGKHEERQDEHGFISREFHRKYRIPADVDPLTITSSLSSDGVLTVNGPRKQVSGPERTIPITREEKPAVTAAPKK

| Substance | FRET efficiency against αAwt/αAwt [1] | FRET efficiency against αBwt/αAwt [2] [fold] |
| --- | --- | --- |
| YFP-tagged C-terminal truncated human αA-crystallin αA162 (from UniProt P02489 1-162) (domain or fragment) | 30 % lower | – |
| YFP-tagged C-terminal truncated human αA-crystallin αA168 (from UniProt P02489 1-168) (domain or fragment) | 30 % lower | – |
| YFP-tagged C-terminal truncated human αA-crystallin αA172 (from UniProt P02489 1-172) (domain or fragment) | 50 % higher | 2 |

Reference: paper PMC3093407
